Measurements published in PMC6045459 (Nature structural & molecular biology, 2018).

What was measured:
[1] = molecular target: NUDT16TI (NUDT16 Tudor-interacting), purified alone (UniProt Q96DE0); experiment: ITC
NUDT16TI K5S = NUDT16TI K5S (UniProt Q96DE0); experiment: ITC
[2] = molecular target: NUDT16TI with deletion of His105 (UniProt Q96DE0); experiment: ITC
[3] = molecular target: TIRR (residues 6-211), untagged (human, UniProt Q9BRJ7 6-211); experiment: crystal structure
AUC = molecular target: the molecule itself; experiment: AUC

Chain of TIRR (residues 6-211), untagged (Q9BRJ7 6-211): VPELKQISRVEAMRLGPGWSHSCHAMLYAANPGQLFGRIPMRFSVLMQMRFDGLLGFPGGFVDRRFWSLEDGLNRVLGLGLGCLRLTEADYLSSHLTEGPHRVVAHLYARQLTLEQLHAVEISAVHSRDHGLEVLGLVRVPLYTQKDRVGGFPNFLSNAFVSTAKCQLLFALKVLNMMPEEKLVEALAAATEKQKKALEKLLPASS

“53BP1-Tudor (residues 1484-1603) (from UniProt Q12888 1484-1603) (domain or fragment)” was tested, and the Kd [1] was 1200 nM, the fold increase of Kd with excess IMP against no IMP [1] was 3 fold and the fold decrease in affinity against NUDT16TI (NUDT16TI K5S) was 14 fold. The fold decrease in affinity against NUDT16TI [2] was 38 fold.

B1: 53BP1-Tudor (residues 1484-1603) (domain or fragment, human, UniProt Q12888 1484-1603, looked up)
chain: NSFVGLRVVAKWSSNGYFYSGKITRDVGAGKYKLLFDDGYECDVLGKDILLCDPIPLDTEVTALSEDEYFSAGVVKGHRKESGELYYSIEKEGQRKWYKRMAVILSLEQGNRLREQYGLG
B1: binds [3].

B2: 53BP1 (residues 1204-1603) (domain or fragment, human, UniProt Q12888 1204-1603, looked up)
chain: EKPVSAPGDDTESLHSQGEEEFDMPQPPHGHVLHRHMRTIREVRTLVTRVITDVYYVDGTEVERKVTEETEEPIVECQECETEVSPSQTGGSSGDLGDISSFSSKASSLHRTSSGTSLSAMHSSGSSGKGAGPLRGKTSGTEPADFALPSSRGGPGKLSPRKGVSQTGTPVCEEDGDAGLGIRQGGKAPVTPRGRGRRGRPPSRTTGTRETAVPGPLGIEDISPNLSPDDKSFSRVVPRVPDSTRRTDVGAGALRRSDSPEIPFQAAAGPSDGLDASSPGNSFVGLRVVAKWSSNGYFYSGKITRDVGAGKYKLLFDDGYECDVLGKDILLCDPIPLDTEVTALSEDEYFSAGVVKGHRKESGELYYSIEKEGQRKWYKRMAVILSLEQGNRLREQYGLG
With B2 the “stoichiometry N” value (AUC) was 2.
